Source: US20210347867A1

Legend:
amyloid peptide Aβ1-42 = amyloid peptide Aβ1-42 (UniProt P05067); assay: ELISA, plate coated with Aβ1-42 (target by legend paragraph 23), antibody titrated, signal as % Max
amyloid peptide AβpE3-42 = amyloid peptide AβpE3-42 (UniProt P05067); assay: ELISA, plate coated with AβpE3-42, antibody titrated, signal as % Max
Sequence of amyloid peptide AβpE3-42 (P05067 674-713 limits assumed): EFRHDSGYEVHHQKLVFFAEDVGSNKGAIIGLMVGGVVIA

Sequence of amyloid peptide Aβ1-42 (P05067 672-713 limits assumed): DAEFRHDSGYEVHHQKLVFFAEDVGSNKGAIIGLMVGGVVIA

EC50 (amyloid peptide Aβ1-42): 0.22 µg/mL
EC50 (amyloid peptide AβpE3-42): 0.15 µg/mL
Substance: Solineuzumab (antibody)
